We go through 18 substances from patent publication US12042530B2, “Target peptides for immunotherapy and diagnostics” (University of Virginia Patent Foundation, priority 2012, dated 2024).

Non-standard residues stand in square brackets, D forms with d. No end group written: not given here. pT = C[C@@H](OP(=O)(O)O)[C@H](N)C(=O)O; pS = N[C@@H](COP(=O)(O)O)C(=O)O

In one test the target is T1, HLA-B*0702 (Homo sapiens, UniProt P01889).
T1 construct: endogenous in cells; host or cells: melanoma and/or leukemia cells
In words: Phosphopeptides presented in association with class I molecules (HLA-B*0702) on cancer cells: melanoma and/or leukemia. Further details: key: Melanoma (M); Leukemia (L); L/M: Melanoma (M) and/or Leukemia (L). The conditions noted are these: cancer type on which the HLA-B*0702 phosphopeptide is presented.

Test [1] has as its target T2, HLA-B*0702 (HLA-B7) peptide complexes (Homo sapiens, UniProt P01889).
T2 construct: endogenous in cells; host or cells: JY B-lymphoblastoid line; primary ALL, CLL, HCL, AML samples; bone marrow; healthy B and T cells
In words: HLA-B*0702 phosphopeptides associated with leukemia samples (isolation of HLA-associated peptides). The conditions noted are these: for Copies/cell class, ALL1: acute lymphoblastic leukemia sample ALL1; for Copies/cell class, T Cell: healthy T cells; for Copies/cell class, B Cell: healthy B cells; for Copies/cell class, HCL1: hairy cell leukemia sample HCL1. The text has this:
To identify naturally processed tumor-associated phosphopeptides, HLA-A*0201 (HLA-A2) and HLA-B*0702 (HLA-B7) peptide complexes from four (4) chronic lymphocytic leukemia (CLL) tumor samples, a mantle cell lymphoma sample (MCL), one acute lymphoblastic leukemia (ALL), and an acute myeloid leukemia (AML) sample, in addition to healthy splenic T and B-cells and the cultured lymphoblastoid cell line JY were isolated. These efforts yielded 10 HLA-A2-restricted and 86 HLA-B7-restricted phosphopeptide antigens (see Tables 6 and 7).
All cell lines were grown at 37° C. with 5% CO2 in growth medium consisting of RPMI 1640 supplemented with 10% FCS and two mM L-glutamine. Blood or leukapheresis samples were taken from patients with high-burden leukemia in heparin. Tumor cells were recovered by layering the blood over density gradient (Ficoll) and collecting the tumor layer following centrifugation. The tumor was washed in tris-buffered saline (TBS). The purity of the tumor was assessed using flow cytometry and was >98% pure in all cases. For healthy T and B-cell populations, a normal spleen sample processed and tonsil sample was collected and lymphocytes released through mechanical disruption. Mononuclear cells were isolated using a density gradient and 10^9 T cells isolated using anti-CD19 or anti-CD3 microbeads (Miltenyi Biotec Inc., Auburn, California, United States of America) with purity >98% were obtained. Bone marrow sample was obtained from an elective orthopedic procedure and red cell-depleted using hypotonic lysis. This sample was not processed further.
Class I MHC molecules were immunoaffinity purified from the JY cell line or from primary tumor samples, and their associated peptides were extracted as previously described in Zarling et al., 2006. Approximately 1.2-14×10^9 cells were lysed in a solution containing 20 mM Tris-HCl (pH 8.0), 150 mM NaCl, 1% CHAPS, one mM PMSF, five μg/mL aprotinin, 10 μg/mL leupeptin, 10 μg/mL pepstatin A, 1 μg/ml calyculin A, and phosphatase inhibitor (cocktails I and II; Sigma-Aldrich). The mixture was subjected to centrifugation and the resulting supernatant was passed over protein A sepharose pre-loaded with the HLA-A2-specific antibody BB7.2 or HLA-B7-specific antibody MEL Peptides were eluted from the purified class I MHC molecules with 10% acetic acid.

In the case of “283 (KPA[pS]PKFIVTL; listed as Homo sapiens) [compound 283]”, the L/M result with HLA-B*0702 is recorded as “L”. Moreover, the “Copies/cell class, AML1” value in test [1] is 2 (2 indicates 1-5 copies/cell).

Regarding “284 (KPPH[pS]PLVL; listed as Homo sapiens) [compound 284]”, in the test with HLA-B*0702, the L/M entry is “L”. Besides, in test [1], the “Copies/cell class, ALL1” value is listed as 4 (4 indicates >25 copies per cell) and the “Copies/cell class, T Cell” value was 2 (2 indicates 1-5 copies/cell).

As for “285 (KPP[pS]PEHQSL; listed as Homo sapiens) [compound 285]”, in the test with HLA-B*0702, the L/M result is on record as “L”. Besides, the “Copies/cell class, ALL1” value in test [1] is reported as 1 (1 indicates <1 copy/cell).

As for “287 (KPP[pT]PGASF; listed as Homo sapiens) [compound 287]”, in the test with HLA-B*0702, the L/M entry is on record as “L”. Further, in test [1], the “Copies/cell class, ALL1” value was 3 (3 indicates 6-25 copies per cell); the “Copies/cell class, B Cell” value is 1 (1 indicates <1 copy/cell); the “Copies/cell class, T Cell” value is recorded as 2 (2 indicates 1-5 copies/cell).

With “288 (KPPYRSH[pS]L; listed as Homo sapiens) [compound 288]”, the L/M entry with HLA-B*0702 is “L”. Besides, in test [1], the “Copies/cell class, AML1” value is 1 (1 indicates <1 copy/cell); the “Copies/cell class, CLL2” value is listed as 1 (1 indicates <1 copy/cell); the “Copies/cell class, JY” value is reported as 2 (2 indicates 1-5 copies/cell); the “Copies/cell class, ALL1” value was 2 (2 indicates 1-5 copies/cell). In addition, the “Copies/cell class, HCL1” value in test [1] is 2 (2 indicates 1-5 copies/cell).

“289 (KPQTRGK[pT]F; listed as Homo sapiens) [compound 289]”: the L/M entry in the test with HLA-B*0702 is given as “L”. For the same substance, in test [1], the “Copies/cell class, ALL1” value is reported as 1 (1 indicates <1 copy/cell) and the “Copies/cell class, HCL1” value is reported as 1 (1 indicates <1 copy/cell).

“291 (KPR[pS]PDHVL; listed as Homo sapiens) [compound 291]”: the L/M entry in the test with HLA-B*0702 is “L”. In test [1], the “Copies/cell class, CLL2” value was 1 (1 indicates <1 copy/cell); the “Copies/cell class, CLL4” value is given as 1 (1 indicates <1 copy/cell); the “Copies/cell class, ALL1” value is listed as 1 (1 indicates <1 copy/cell); the “Copies/cell class, HCL1” value is listed as 1 (1 indicates <1 copy/cell).

Consider “295 (KPR[pS]PVVEL; listed as Homo sapiens) [compound 295]”, for which, in the test with HLA-B*0702, the L/M entry was “L/M”. In addition, in test [1], the “Copies/cell class, AML1” value was 4 (4 indicates >25 copies per cell); the “Copies/cell class, CLL2” value was 4 (4 indicates >25 copies per cell); the “Copies/cell class, CLL4” value is given as 4 (4 indicates >25 copies per cell); the “Copies/cell class, JY” value is 4 (4 indicates >25 copies per cell). Further, in test [1], the “Copies/cell class, ALL1” value is listed as 2 (2 indicates 1-5 copies/cell) and the “Copies/cell class, HCL1” value is 4 (4 indicates >25 copies per cell).

As for “296 (KPY[pS]PLASL; listed as Homo sapiens) [compound 296]”, the L/M entry with HLA-B*0702 is “L”. Also, in test [1], the “Copies/cell class, CLL2” value was 1 (1 indicates <1 copy/cell); the “Copies/cell class, JY” value is 4 (4 indicates >25 copies per cell); the “Copies/cell class, ALL1” value is on record as 2 (2 indicates 1-5 copies/cell); the “Copies/cell class, HCL1” value was 2 (2 indicates 1-5 copies/cell). In test [1], the “Copies/cell class, B Cell” value is given as 2 (2 indicates 1-5 copies/cell) and the “Copies/cell class, T Cell” value is 3 (3 indicates 6-25 copies per cell).

For “297 (LPA[pS]PRARL; listed as Homo sapiens) [compound 297]”, in the test with HLA-B*0702, the L/M result is “L”. The “Copies/cell class, AML1” value in test [1] is 1 (1 indicates <1 copy/cell).

On to “302 (QPR[pS]PGPDYSL; listed as Homo sapiens) [compound 302]”, for which the L/M entry with HLA-B*0702 is “L”. The “Copies/cell class, AML1” value in test [1] is reported as 3 (3 indicates 6-25 copies per cell).

In the case of “305 (RAP[pS]PSSRM; listed as Homo sapiens) [compound 305]”, the L/M entry with HLA-B*0702 is recorded as “L”. In addition, in test [1], the “Copies/cell class, ALL1” value is recorded as 4 (4 indicates >25 copies per cell) and the “Copies/cell class, B Cell” value is 1 (1 indicates <1 copy/cell).

With “306 (RPAK[pS]MDSL; listed as Homo sapiens) [compound 306]”, the L/M result with HLA-B*0702 was “L”. Also, in test [1], the “Copies/cell class, CLL2” value is recorded as 2 (2 indicates 1-5 copies/cell); the “Copies/cell class, JY” value is on record as 4 (4 indicates >25 copies per cell); the “Copies/cell class, ALL1” value was 2 (2 indicates 1-5 copies/cell); the “Copies/cell class, HCL1” value is reported as 1 (1 indicates <1 copy/cell). In test [1], the “Copies/cell class, B Cell” value is 2 (2 indicates 1-5 copies/cell) and the “Copies/cell class, T Cell” value is recorded as 3 (3 indicates 6-25 copies per cell).

As to “307 (RPA[pS]AGAML; listed as Homo sapiens) [compound 307]”, the L/M entry in the test with HLA-B*0702 was “L”. Moreover, in test [1], the “Copies/cell class, AML1” value was 1 (1 indicates <1 copy/cell); the “Copies/cell class, CLL2” value was 2 (2 indicates 1-5 copies/cell); the “Copies/cell class, JY” value is reported as 4 (4 indicates >25 copies per cell); the “Copies/cell class, ALL1” value is given as 4 (4 indicates >25 copies per cell). In test [1], the “Copies/cell class, HCL1” value is 2 (2 indicates 1-5 copies/cell); the “Copies/cell class, B Cell” value was 1 (1 indicates <1 copy/cell); the “Copies/cell class, T Cell” value is given as 3 (3 indicates 6-25 copies per cell). Moreover, the “Copies/cell class, BM” value in test [1] (healthy bone marrow) is on record as 1 (1 indicates <1 copy/cell).

In the case of “308 (RPA[pS]ARAQPGL; listed as Homo sapiens) [compound 308]”, the L/M result in the test with HLA-B*0702 was “L/M”. Further, in test [1], the “Copies/cell class, AML1” value is 2 (2 indicates 1-5 copies/cell); the “Copies/cell class, CLL2” value is on record as 3 (3 indicates 6-25 copies per cell); the “Copies/cell class, CLL4” value is reported as 2 (2 indicates 1-5 copies/cell); the “Copies/cell class, JY” value was 4 (4 indicates >25 copies per cell). In test [1], the “Copies/cell class, ALL1” value is recorded as 1 (1 indicates <1 copy/cell) and the “Copies/cell class, HCL1” value is reported as 2 (2 indicates 1-5 copies/cell).

In the case of “309 (RPA[pS]PAAKL; listed as Homo sapiens) [compound 309]”, in the test with HLA-B*0702, the L/M result was “M”. Further, in test [1], the “Copies/cell class, AML1” value was 1 (1 indicates <1 copy/cell); the “Copies/cell class, CLL2” value is given as 2 (2 indicates 1-5 copies/cell); the “Copies/cell class, CLL4” value was 1 (1 indicates <1 copy/cell); the “Copies/cell class, JY” value is reported as 4 (4 indicates >25 copies per cell). Also, in test [1], the “Copies/cell class, ALL1” value is 2 (2 indicates 1-5 copies/cell); the “Copies/cell class, HCL1” value was 1 (1 indicates <1 copy/cell); the “Copies/cell class, B Cell” value was 1 (1 indicates <1 copy/cell); the “Copies/cell class, T Cell” value is given as 1 (1 indicates <1 copy/cell).

With “310 (RPA[pT]GGPGVA; listed as Homo sapiens) [compound 310]”, the L/M result with HLA-B*0702 was “L”. Moreover, the “Copies/cell class, ALL1” value in test [1] was 1 (1 indicates <1 copy/cell).

For the substance “312 (RPD[pS]RLGKTEL; listed as Homo sapiens) [compound 312]”, the L/M result in the test with HLA-B*0702 was “L”. Further, in test [1], the “Copies/cell class, AML1” value is reported as 2 (2 indicates 1-5 copies/cell); the “Copies/cell class, CLL2” value is listed as 1 (1 indicates <1 copy/cell); the “Copies/cell class, JY” value is reported as 4 (4 indicates >25 copies per cell); the “Copies/cell class, ALL1” value is recorded as 2 (2 indicates 1-5 copies/cell). The “Copies/cell class, HCL1” value in test [1] was 1 (1 indicates <1 copy/cell).
